The values below come from patent US20240124585A1 (SUTRO BIOPHARMA, published 2024).

Assay [1] deals with T1, human CD3 on T-cell lines (CD3-expressing Jurkat cells; HUT78 cells) (human, UniProt P07766 23-207).
T1 construct: On cells it stands in the CD3/TCR complex
The experiment in a line: flow cytometry, HUT78 cells. For orientation: A flow cytometer gives signals particle by particle.

Assay [2] deals with T2, human CD3 epsilon (Acro Cat #CDE-H5223) (human, UniProt P07766 23-126).
T2 construct: Bought recombinant protein; also called rhCD3E
T2 sequence (P07766 23-126 limits assumed): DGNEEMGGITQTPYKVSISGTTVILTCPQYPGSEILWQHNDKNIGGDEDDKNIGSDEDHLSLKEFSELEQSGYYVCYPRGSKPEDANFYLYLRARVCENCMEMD
The experiment in a line: SPR (Biacore), antibody captured, human CD3 epsilon analyte. The method, then:
(§1) Anti-Fab or anti-Fc polyclonal antibodies were immobilized onto a CM5 chip (GE Life Sciences) using amine coupling chemistry (from Amine Coupling Kit, GE Life Sciences). The immobilization steps were carried out at a flow rate of 25 μl/min in 1×HBS-EP+ buffer (GE Life Sciences; 10× Stock diluted before use). The sensor surfaces were activated for 7 min with a mixture of NHS (0.05 M) and EDC (0.2 M). The Anti-Fab or Anti-Fc antibodies were injected over all 4 flow cells at a concentration of 25 μg/mL in 10 mM sodium acetate, pH 4.5, for 7 min. Ethanolamine (1 M, pH 8.5) was injected for 7 min to block any remaining activated groups.
(§2) Off-rate and kinetic binding experiments were performed at 25° C. using 1×HBS-EP+ buffer. Test and control antibodies were injected over the anti-Fab or anti-Fc surface at concentrations of 5-10 μg/mL for 12 seconds at a flow rate of 10 μL/min on flow cells 2, 3 and 4, followed by a buffer wash for 30 seconds at the same flow rate. […] After capturing ligand (antibody) on the anti-Fc or anti-Fab surface, the analyte (human CD3 epsilon, Acro Cat #CDE-H5223) was bound for 180 seconds, followed by a 600 second dissociation phase at a flow rate of 50 μL/min. Between each ligand capture and analyte binding cycle, regeneration was carried out using two injections of 10 mM Glycine pH 2.0 for 30 seconds at 30 μL/min, followed by a 30 second buffer wash step.
(§3) The data was fit with the Biacore T200 Evaluation software, using a 1-1 Langmuir binding model. KD (affinity, nM) was determined as a ratio of the kinetic rate constants calculated from the fits of the association and dissociation phases.
A general note: In SPR one partner is held on a chip, and binding of the other changes the refractive index at the surface.

Assay [3] has as its target T2, human CD3 epsilon (Acro Cat #CDE-H5223). The assay is described as above. The method, then: as §1, §2, §3
The source holds these as a separate data set.

A further assay addresses T3, cynomolgus CD3 epsilon (cynomolgus monkey, UniProt Q95LI5 22-117, limits assumed).
T3 construct: Recombinant protein; also called cyno CD3E
T3 sequence: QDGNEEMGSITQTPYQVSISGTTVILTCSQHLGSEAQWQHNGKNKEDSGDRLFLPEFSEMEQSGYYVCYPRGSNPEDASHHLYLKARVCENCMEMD
Kind of assay: SPR (Biacore), antibody captured, cynomolgus CD3 epsilon analyte.

For assay [4], the target named is T1, human CD3 on T-cell lines …. Kind of assay: flow cytometry, HUT78 cells. This is another data set of the same source.

Residue numbers refer to the chain shown, from its start. Names may count otherwise. Where two headings read alike, the source gives them in different places.

T1 sequence (P07766 23-207 limits assumed): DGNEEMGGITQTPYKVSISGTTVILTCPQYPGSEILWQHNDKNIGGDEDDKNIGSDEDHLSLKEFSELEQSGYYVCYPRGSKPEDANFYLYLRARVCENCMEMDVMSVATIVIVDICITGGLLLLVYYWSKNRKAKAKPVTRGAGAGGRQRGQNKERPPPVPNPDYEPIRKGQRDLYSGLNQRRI

B1: 2037-B10_Hc-F29D (antibody, human IgG1, lambda, V domains shown)
VH: EVQLVESGGGLVKPGGSLRLSCAASGFTDNKYAMNWVRQAPGKGLEWVARIRTKYNNYATYYADSVKDRFTISRDDSKNTAYLQMNSLKTEDTAVYYCVRHGNFGNSYISYWAYWGQGTPVTVSS
VL: QTVVTQEPSLTVSPGGTVTLTCGSSTGAVTSGYYPNWLQQKPGQAPRGLIGGTKFLAPGTPARFSGSLLGGKAALTLSGVQPEDEAEYYCALWYSNRWVFGGGTQLTVTG
notes: human IgG1, lambda; also called SRP 2037 F29D; 2037-B10_VH-F29D
As a reminder, the Kd is the constant that tells how readily two partners part at equilibrium. Higher therefore signals lower affinity. A word on the koff: it is the first-order rate constant of dissociation. Read a high koff as a short-lived complex. Usually kon stands for a measure of how fast the partners come together. On to B1, for which the “Bmax (MFI)” value in assay [1] came out at 1080 MFI. Further, the Kd in assay [1] amounted to 1.87 nM; in assay [2] it was 2.36 nM; in assay [3] it was 11 nM; in the assay with cynomolgus CD3 epsilon it was 2.69 nM. The values for the dissociation rate constant (koff) (in assay [2]; in assay [3]; with cynomolgus CD3 epsilon) were 0.000491 s⁻¹, 0.000453 s⁻¹ and 0.000573 s⁻¹, respectively. Moreover, the values for the kon (in assay [2]; in assay [3]; with cynomolgus CD3 epsilon) were 208000 M⁻¹ s⁻¹, 41200 M⁻¹ s⁻¹ and 213000 M⁻¹ s⁻¹, respectively.

B2: 2037-B10_Hc-S107D (antibody, human IgG1, lambda, V domains shown)
VH: B1 VH with D29F, S107D
VL: B1 VL
notes: human IgG1, lambda; also called SRP 2037 S107D; 2037-B10_VH-S107D
For B2, in assay [1], the “Bmax (MFI)” value came out at 1060 MFI and the equilibrium dissociation constant (Kd) stood at 1.72 nM. Besides, in assay [4], the “HUT78 Bmax” value worked out at 1630 and the Kd turned out to be 15.6 nM. In assay [2], this molecule showed a Kd of 1.47 nM, a koff of 0.000215 s⁻¹ and a kon of 146000 M⁻¹ s⁻¹. In assay [3], this molecule yielded a Kd of 5.06 nM, a koff of 0.00041 s⁻¹ and an on-rate (kon) of 81000 M⁻¹ s⁻¹. In the assay with cynomolgus CD3 epsilon, the Kd is 1.64 nM, the koff turned out to be 0.00034 s⁻¹ and the association rate constant (kon) is 207000 M⁻¹ s⁻¹.

B3: SRP 2037-B10 Y55D/LC6 (antibody, human IgG1, kappa, V domains shown)
VH: B1 VH with D29F, Y55D
VL: DIQMTQSPSSLSASVGDRVTITCGSSTGAVTSGYYPNWLQQKPGQAPRGLIGGTKFLAPGVPSRFSGSLSGGKATLTISSLQPEDFATYYCALWYSNRWVFGGGTKVEIKR
notes: human IgG1, kappa
Regarding B3, in assay [4], the “HUT78 Bmax” value came to 1250 and binding was characterised by a dissociation constant (Kd) of 6.35 nM. In assay [3], the Kd stood at 3.89 nM, the koff was 0.000392 s⁻¹ and the kon came to 101000 M⁻¹ s⁻¹. In addition, in the assay with cynomolgus CD3 epsilon, the affinity, expressed as Kd, was 2.09 nM; the off-rate constant (koff) was found to be 0.000945 s⁻¹; the on-rate constant (kon) was determined as 451000 M⁻¹ s⁻¹.

B4: SRP 2037-B10 Y55D/R97D (antibody, human IgG1, lambda, V domains shown)
VH: B1 VH with D29F, Y55D
VL: B1 VL with R97D
notes: human IgG1, lambda
In the case of B4, in assay [4], the “HUT78 Bmax” value was determined as 1190 and binding was characterised by a dissociation constant (Kd) of 62.4 nM. In assay [3], this molecule came in with an equilibrium dissociation constant (Kd) of 5.07 nM, a koff of 0.000441 s⁻¹ and an on-rate (kon) of 87000 M⁻¹ s⁻¹.

B5: 2037-B10_Hc-Y55D (antibody, human IgG1, lambda, V domains shown)
VH: B1 VH with D29F, Y55D
VL: B1 VL
notes: human IgG1, lambda; also called SRP 2037 Y55D; 2037-B10_VH-Y55D
For the molecule B5, the “Bmax (MFI)” value in assay [1] came to 544 MFI. The equilibrium dissociation constant (Kd) in assay [1] amounted to 0.27 nM; in assay [4] it was 9.36 nM; in assay [2], 1.31 nM; in assay [3] it was 2.45 nM; in the assay with cynomolgus CD3 epsilon it was 1 nM. For the same molecule, the “HUT78 Bmax” value in assay [4] worked out at 1270. Further, the dissociation rate constant (koff) in assay [2] was 0.000372 s⁻¹; in assay [3] it was 0.000277 s⁻¹; in the assay with cynomolgus CD3 epsilon, 0.00058 s⁻¹. In addition, the values for the association rate constant (kon) (in assay [2]; in assay [3]; in the assay with cynomolgus CD3 epsilon) were 284000 M⁻¹ s⁻¹, 113000 M⁻¹ s⁻¹ and 579000 M⁻¹ s⁻¹, respectively.

B6: SRP 2037-B10 Y61D/R97D (antibody, human IgG1, lambda, V domains shown)
VH: B1 VH with D29F, Y61D
VL: B1 VL with R97D
notes: human IgG1, lambda
For B6, in assay [4], the “HUT78 Bmax” value is 2000 and the affinity, expressed as Kd, was 121 nM. In assay [3], this molecule displayed a dissociation constant (Kd) of 3.91 nM, a koff of 0.00029 s⁻¹ and a kon of 74000 M⁻¹ s⁻¹.

B7: 2037-B10_Hc-F104D (antibody, human IgG1, lambda, V domains shown)
VH: B1 VH with D29F, F104D
VL: B1 VL
notes: human IgG1, lambda; also called SRP 2037 F104D; 2037-B10_VH-F104D
With B7, in assay [1], the “Bmax (MFI)” value came out at 617 MFI and the Kd is 1.72 nM. Moreover, in assay [4], the “HUT78 Bmax” value came out at 1200 and the Kd was found to be 23 nM. Also, in assay [2], the Kd amounted to 7.82 nM, the koff was 0.000631 s⁻¹ and the on-rate (kon) amounted to 80700 M⁻¹ s⁻¹. In assay [3], this molecule gave a Kd of 3.38 nM, a koff of 0.000241 s⁻¹ and a kon of 71200 M⁻¹ s⁻¹. For the same molecule, in the assay with cynomolgus CD3 epsilon, the equilibrium dissociation constant (Kd) was found to be 6.45 nM, the koff worked out at 0.00107 s⁻¹ and the kon worked out at 166000 M⁻¹ s⁻¹.

B8: SRP 2037-B10 F29D/LC6 (antibody, human IgG1, kappa, V domains shown)
VH: B1 VH
VL: B3 VL
notes: human IgG1, kappa
On to B8, for which, in assay [4], the “HUT78 Bmax” value was determined as 1040 and the dissociation constant Kd is 3.72 nM. In assay [3], this molecule gave a Kd of 18.5 nM, an off-rate (koff) of 0.000749 s⁻¹ and an association rate constant (kon) of 40500 M⁻¹ s⁻¹. Besides, in the assay with cynomolgus CD3 epsilon, the Kd worked out at 5.87 nM, the koff worked out at 0.00121 s⁻¹ and the on-rate constant (kon) worked out at 206000 M⁻¹ s⁻¹.

B9: 2037-B10_Lc-R97D (antibody, V domains shown)
VH: not shown
VL: B1 VL with R97D
notes: human IgG1, lambda; also called SRP 2037 R97D; 2037-B10 VL-R97D
B9: in assay [1], the “Bmax (MFI)” value came out at 953 MFI and binding was characterised by a dissociation constant (Kd) of 0.58 nM. Moreover, in assay [4], the “HUT78 Bmax” value is 2080 and binding was characterised by a dissociation constant (Kd) of 2.93 nM. In assay [3], this molecule had a Kd of 1.49 nM, a koff of 0.000257 s⁻¹ and a kon of 172000 M⁻¹ s⁻¹.

B10: SRP 2037-B10 Y61D/LC6 (antibody, human IgG1, kappa, V domains shown)
VH: B1 VH with D29F, Y61D
VL: B3 VL
notes: human IgG1, kappa
For B10, in assay [4], the “HUT78 Bmax” value worked out at 737 and binding was put at a Kd of 6.61 nM. In addition, in assay [3], the Kd came out at 3.63 nM, the koff turned out to be 0.000369 s⁻¹ and the kon amounted to 102000 M⁻¹ s⁻¹. Besides, in the assay with cynomolgus CD3 epsilon, the Kd stood at 3.99 nM, the off-rate constant (koff) worked out at 0.00154 s⁻¹ and the kon turned out to be 387000 M⁻¹ s⁻¹.

B11: SRP 2037-B10 S107D/LC6 (antibody, human IgG1, kappa, V domains shown)
VH: B1 VH with D29F, S107D
VL: B3 VL
notes: human IgG1, kappa; also called 2037-B10 IgG S107D Lc6
For the molecule B11, in assay [4], the “HUT78 Bmax” value amounted to 1550 and the dissociation constant Kd was determined as 17.3 nM. In assay [3], the Kd amounted to 8.62 nM, the koff stood at 0.000459 s⁻¹ and the kon was found to be 53200 M⁻¹ s⁻¹. In addition, in the assay with cynomolgus CD3 epsilon, the equilibrium dissociation constant (Kd) turned out to be 3.41 nM, the koff turned out to be 0.000558 s⁻¹ and the kon is 164000 M⁻¹ s⁻¹.

B12: SRP 2037-B10 F104D/LC6 (antibody, human IgG1, kappa, V domains shown)
VH: B1 VH with D29F, F104D
VL: B3 VL
notes: human IgG1, kappa
In the case of B12, in assay [4], the “HUT78 Bmax” value is 760 and the dissociation constant (Kd) stood at 24.6 nM. In addition, in assay [3], the Kd was found to be 3.7 nM, the off-rate constant (koff) was found to be 0.000374 s⁻¹ and the kon worked out at 101000 M⁻¹ s⁻¹. Besides, in the assay with cynomolgus CD3 epsilon, the affinity, expressed as Kd, was 14.9 nM; the dissociation rate constant (koff) was determined as 0.00165 s⁻¹; the on-rate constant (kon) turned out to be 111000 M⁻¹ s⁻¹.

B13: 2037-B10_Hc-Y61D (antibody, human IgG1, lambda, V domains shown)
VH: B1 VH with D29F, Y61D
VL: B1 VL
notes: human IgG1, lambda; also called SRP 2037 Y61D; 2037-B10_VH-Y61D
As to B13, in assay [1], the “Bmax (MFI)” value amounted to 689 MFI and the dissociation constant Kd was determined as 0.32 nM. Moreover, in assay [4], the “HUT78 Bmax” value turned out to be 804 and the Kd was 18.8 nM. Also, in assay [2], the Kd came to 1.84 nM, the koff stood at 0.000591 s⁻¹ and the kon worked out at 321000 M⁻¹ s⁻¹. Moreover, in assay [3], binding was put at a Kd of 3.42 nM, the dissociation rate constant (koff) amounted to 0.000379 s⁻¹ and the association rate constant (kon) worked out at 111000 M⁻¹ s⁻¹. Besides, in the assay with cynomolgus CD3 epsilon, the Kd turned out to be 1.73 nM, the dissociation rate constant (koff) was 0.00123 s⁻¹ and the kon is 709000 M⁻¹ s⁻¹.
